Where a chain is given by its changes, count along the chain named.
T1: 10E8-GT10.2 epitope scaffold (designed scaffold 10E8-GT10.2 with …, N-linked glycosylation sites added (positions not given))
T1 chain: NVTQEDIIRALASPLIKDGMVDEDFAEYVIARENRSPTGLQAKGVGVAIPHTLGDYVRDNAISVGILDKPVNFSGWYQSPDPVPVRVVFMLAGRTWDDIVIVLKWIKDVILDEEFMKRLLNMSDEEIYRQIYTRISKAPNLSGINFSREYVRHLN

B1: MPER18_d21_45.1_v55_m3_F03 (antibody, V domains shown)
VH: EVQLQQSGPVLVKPGPSLKISCKASGFTITDYYMHWVKQTHGKSLAWIGLLYPYNGGTSYNQKFKGKATLTVDTSSSTAYMELNSLTSDDSAVYYCAREGHYDRKGYFDVWGTGTTVTVSS
VL: DIVMTQSHKFMSTSVGDRVSITCKASQDVSTAVAWYQQKPGQSPKLLIYWASTRHTGVPDRFTGSGSGTDYTLIISSVQAEDLALYYCQQHYSIPFTFGSGTKLEIK
B2: MPER18_d21_45.2_v55_04 (antibody, V domains shown)
VH: QVQLQESGPGLVKPSETLSLTCTVSGDSISSYYWNWIRQPPGKGLEWIGYFYYYGSTNYNPSLKSRVTISVDTSKNQFSLNLSSVTAADTAVYYCAREPPYYDFWSGLSMGVDTFDIWGQGTMVTVSS
VL: DVVMTQTPLSLPVSLGDQASISCRSSQSLVHSNGNTYLHWYLQKPGQSPKLLIYKVSNRFSGVPDRFSGSGSGTDFTLKISRVEAEDLGVYFCSQSTHVPRTFGGGTKLEIK
B3: MPER18_d21_45.2_v55_m5_D04 (antibody, V domains shown)
VH: B2 VH with D27G, N35S, Y50H, F51I, Y54S, S65G, N81K, S83T, D113G, T114A
VL: DVLMTQTPLSLPVSLGDQASISCRSSQSIVHSNGYTYVEWYLQKPGQSPKLLIYKVSNRFSGVPDRFTGSGSGTDFTLKISRVEAADLGVYYCFQGSHVPYTFGGGTKLEIK
B4: MPER18_d21_45.2_v55_24 (antibody, V domains shown)
VH: B2 VH with D27G, N35S, F51I, Y54S, N81K, D113G, T114A, M123L
VL: B3 VL with M4L, T7S, S10A, V38L, I53V, T68S, A85T, A86E
B5: MPER18_d21_45.2_v55_12 (antibody, V domains shown)
VH: B2 VH with K13T, G49E, F51M, Y52F, Y54S, N81K, D113G, T114A
VL: B3 VL with V2I, L3V, T7S, V38L, E39D, K44R, T68S, A86E
B6: MPER18_d21_45.2_v55_17 (antibody, V domains shown)
VH: B2 VH with D27G, Y33F, N35S, F51I, Y53N, Y54S, N60H, N81K, D113G, T114A
VL: B3 VL with N33S, Y35N, V38L, F67I, T68G, A86E, Y92F, Y101W
B7: MPER18_d21_45.2_v55_m15_E09 (antibody, V domains shown)
VH: B2 VH with D27G, S31N, N35S, Y54S, S56T, N81K, D113G, T114A
VL: B3 VL with H31Y, V38L, T68S, A86E, Y101W
B8: MPER18_d21_45.2_v55_22 (antibody, V domains shown)
VH: B2 VH with D27G, N35S, F51I, Y54S, N81K, S106G, S109F, D113G, T114A
VL: B3 VL with Y35N, Y37F, V38L, K50N, K55R, F60L, T68S, A86E, Y101W
B9: MPER18_d21_45.2_v55_m15_C05 (antibody, V domains shown)
VH: QVQLQESGPGLVKPSETLSLTCTVSGGSISSYCWSWIRQSPGKGLEWIGYIYYSGSINHNPSLKSRVTISADTSKNQFSLKLSSVTAADTAVYYCAREPPYYDFWSGLSMGVGAFDIWGQGTMVTVSS
VL: B2 VL with V2I, T7S, S32N, K44Q, K55N, V56F
B10: MPER18_d21_45.2_v55_m15_D04 (antibody, V domains shown)
VH: B9 VH with S31G, C33Y, S40P, I57T, H59Y, A71V, I117F
VL: B3 VL with T7S, Y35N, V38L, T68S, K79R, A86E, Y101C
B11: MPER18_d21_45.2_v55_m15_C11 (antibody, V domains shown)
VH: B2 VH with D27G, F51I, Y52F, Y54S, S56T, N81K, L82V, S83R, D113G, T114S
VL: DIVMTQSPLSLPVSLGDQASISCRSSQTIVYSSGYTYLEWYLQKPGQSPKLLIYKVSNRFSGVPDRFSGSGSGTDFTLKISRVEAEDLGVYFCFQGSHVPWTFGGGTKLEIK
B12: MPER18_d21_45.1_v55_m3_C07 (antibody, V domains shown)
VH: QVQLKQSGPGLVQPSQSLSITCTVSGFSLTNYDIHWVRQSPGKGLEWLGVIWSGGSTDYNAGFISRLSISKDNSKSQVFFKMNSLQGDDTAIYYCARGGGYYEDYVMDYWGQGTSVTVSS
VL: DIQMTQSPASLSASVGETVTITCRASGNIHNYLAWYQQKQGESPHLLVYNAKTLADGVPSRFSGSDSGTQYSLKINSLQPEDFGSYYCQHFWTTPYTFGGGTKLEIK
B13: MPER18_d21_45.1_v55_m3_D12 (antibody, V domains shown)
VH: QVQLQQSGAELMKPGASVILSCKATGYTFTGYWIEWVKLRPGHGLEWIGEILPGNSSTKYNEKFKGKATFTADTSSNTANMQLSSLTTEDSAIYYCARRWNDYDGVAWFGYWGQGTLVSVSA
VL: B12 VL with E42K, H45Q, N50S, D66G, T93S
B14: MPER18_d21_45.1_v55_m3_D01 (antibody, V domains shown)
VH: B12 VH with I34V, E46A, G62T, S76T, G87A, V106A
VL: NIVLTQSPASLAVSLGQRATISCRASESVDTYGNSFMHWYQLKPGQPPKLLIYLASNLESGVPARFSGSGSRTDFTLTIDPVEADDAATYYCQQNNEDPYTFGGGTELEIQ
B15: MPER18_d21_45.1_v55_m3_F02 (antibody, V domains shown)
VH: QVQLKQSGPGLVQPSQSLSITCTVSGFSLTSNGVHWVRQSPGKGLDWLGVIWTGGSTDYNTTFLSRLSISKDNSKSQVFFKMNSLQADDTAIYYCARGGGYYEDYAMDYWGQGTSVTVSS
VL: B12 VL with E42K, H45Q, D66G, Y87C, T93S, K107R
B16: MPER-052 (antibody, V domains shown)
VH: EVQLVESGGGLVQPGRSLRLSCTASGFTFGDYAMSWVRQAPGKGLEWVGFIRSKAYGGTTEYAASVKGRFTISRDDSKSIAYLQMNSLKTEDTAVYYCTRDLMGYYDFWSGYYRGHYGMDVWGKGTTVTVSS
VL: AIQMTQSPSSLSASVGDRVTITCRASQGIRNDLGWYQQKPGKAPKLLIYAASSLQSGVPSRFSGSGSGTDFTLTISSLQPEDFATYYCLQDYNYPLTFGGGTKVEIK
B17: NHP-10E8_MPER-GT10v55_W3-19 (antibody, V domains shown)
VH: EVQLVESGGGLVQPGGSLRLSCAASGFTFSNYWMSWVRQAPGKGLEWVGFIKNKADGGTAAYAESVKGRFSISRDDSKNTLYLQMNSLKTEDTAVYYCTRDVGRYNFWSGYYSHNRIDVWGPGVLVTVSS
VL: SYELTQPPSVSVSPGQMARITCGGDNLGSKYVHWFQQKPAQAPALVIYDDSDRPSGIPERFSGSKSGNTATLTISGVESGDEADYYCQVWDSGTDHPLFGGGTRLTV
B18: MPER-051 (antibody, V domains shown)
VH: QVQLVESGGGLVKPGGSLRLSCAASGFTFSDYYMSWIRQAPGKGLEWVSYISSSGSTIYYADSVKGRFTISRDNAKNSLYLQMNSLRAEDTAVYYCASLAHTYYDFWSGYYDRYYGMDVWGKGTTVTVSS
VL: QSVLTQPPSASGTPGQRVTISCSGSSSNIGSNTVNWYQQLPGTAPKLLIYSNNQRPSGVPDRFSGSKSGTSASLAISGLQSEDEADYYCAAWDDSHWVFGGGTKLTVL
B19: NHP-10E8_MPER-GT10v55_W21-02 (antibody, V domains shown)
VH: EVQLVESGGGLVQPGGSLRLSCAASGFTFSNYWMSWVRQAPGKGLEWVGFIKNKADGGTAAYAESVKGRFTISRDDSKNTLYLQMNSLKTEDTAVYYCARAGAPYYNFWSGYYESYDAFDFWGQGLRVTVSS
VL: QPVLTQPTSLSASPGASARLTCTLRSGISVGSYRIFWYQQKPGSPPRYLLNYHTDSDKHQGSGVPSRFSGSKDASANAGILLISGLQSEDEADYYCMIWHNNAVLFGGGTRLTV
B20: MPER18_d21_45.2_v55_15 (antibody, V domains shown)
VH: B9 VH with C33S, S40P, Y52S, I57T, H59Y, A71V, N76S, S106N, G107E
VL: DVLMTQIPLSLPVSLGDQASISCRSSQSIVQNNGNTFLEWFLQKPGQSPKLLIYRVSNRFSGVPDRFSGSGSGTDFTLKISRVEAEDLGVYYCFQGSHVPWTFGGGTKLEIK
B21: MPER18_d21_45.2_v55_m15_A04 (antibody, V domains shown)
VH: B9 VH with C33Y, S40P, Y52F, I57T, H59Y, K64R, A71V, D72G, S83N, V112M
VL: B11 VL with V3L, T28S, Y31H, S33N, Y35N, T36S, F92Y, V99I
B22: MPER18_d21_45.2_v55_m15_A06 (antibody, V domains shown)
VH: B9 VH with T21A, I29F, Y32S, C33Y, S40P, I57T, H59Y, I69M, A71V
VL: B20 VL with I7S, P12S, I29V, Q31H, N32S, F37Y, F41Y, K44Q, R55K
B23: MPER18_d21_45.2_v55_m5_E10 (antibody, V domains shown)
VH: B9 VH with T23S, S31G, C33Y, S40P, Y52F, I57T, H59Y, A71V, S83T
VL: B11 VL with S7T, R24S, T28N, Y31H, S33N, F92Y, W101Y
B24: MPER18_d21_45.2_v55_21 (antibody, V domains shown)
VH: B9 VH with C33Y, S40P, Y52S, I57T, H59Y, A71V, A87T, S106N, G107E
VL: B20 VL with R24S
B25: MPER18_d21_45.2_v55_m15_D07 (antibody, V domains shown)
VH: B9 VH with K13R, C33Y, S40P, I57T, H59Y, A71V, S83N, A96T, G107E, M110L
VL: B11 VL with Y31H, S33N, F92Y
B26: MPER18_d21_45.1_v55_m3_B08 (antibody, V domains shown)
VH: QVQLQQPGAELVKPGASVKLSCKASGYTFTSYWMHWVKQRPGQGLEWIGMIRPNSGSTNYNERFKSKATLTVDKSSSTAYMQLSSLTSGDSAVYYCAKGGTWTMDYWGQGTSVTVSS
VL: DIVMTQSPSSLSVSAGEKVTMICKSSQSLLNSGNQKNYLAWYQQKPGQPPKLLIYGASTRESGVPDRFTGSGSGTDFTLTISSVQAEDLAVYYCQNDHSYPLTFGAGTKLELK
B27: NHP-10E8_MPER-GT10v55_W3-18 (antibody, V domains shown)
VH: EVQLVESGGGLVQPGGSLRLSCAASGFTFSDYAMDWVRQAPGKGLEWVGYIRSKDYGGTAEYAASVKGRLTISRDDSKNTAYLQMNSLKTEDTAVYYCSRGRGYYHFWSGYYTPYNRFDVWGPGVLVTVSS
VL: DVVMTQSPLSLPVTPGQPASISCRSSQSLVHSDGKTYLNWLQQKPGQPPRRLIYQVSNRDSGVPDRFSGSGAGTDFTLKISRVEAEDVGVYYCVQGTNVPWTFGQGTKVEIK
B28: NHP-10E8_MPER-GT10v55_W21-01 (antibody, V domains shown)
VH: EVRLVESGGGLVQPGGSLRLSCAASGFTFSDYYMSWVRQAPGKGPEWVGFIRNKANGGTAEYAASVKGRFTISRDDSKSIASLQMNSLKTEDTAVYYCARAPLHYNFWSGYYTDYGLDSWGQGVVVTVSS
VL: DIVMTQSPDSLAVSLGERVTINCKSSQSLLYSSNNKNYLAWYQQKPGQAPKLLIYWASTRESGVPNRFSGSGSGSDFTLTISGLQAEDVAVYYCQQYYSTPHSFGQGTKVEIK

Target: T1, 10E8-GT10.2 epitope scaffold

Binder	Kd [nM]
B1	31.2
B2	563
B3	0.714
B4	0.249
B5	0.662
B6	13.2
B7	14.8
B8	2.87
B9	401
B10	21.9
B11	6.91
B12	985
B13	1250
B14	3.38
B15	94.6
B16	4100
B17	345
B18	13000
B19	4560
B20	9.89
B21	14.1
B22	86.1
B23	0.571
B24	2.21
B25	2.79
B26	245
B27	1.16
B28	6750

From article PMC11147780, “Vaccination induces broadly neutralizing antibody precursors to HIV gp41” (Nature Immunology, 2024)
